In a protein production outcome set (Wang et al. 2014):

Test: label from the status in PepcDB records

Sequence | protein production
MTAKPTIAFSHLGCEKNRIDTEHMIGLLAEAGYGIDANEALADVVVVNTCSFIQAAREESVRTLVELAESGKKIVIAGCLAQHFQDQLLAELPEAIALVGTGDYHRIVDVLQRTESGERVNAISQEPSFIADENLPRYRTTTSAVAYLRVAEGCDYRCAFCIIPHLRGKQRSRSIESIVAEAKQLAAEGVQELVLISQITTNYGLDRYGKPMLAELLRQLGQVDVPWIRIHYAYPTGLTPEVIAAIRETHNVLPYLDLPLQHSHPEILKAMNRPWQGNVNDRIIEKLKEALPDAVLRTTFIAGFPGETEEHFRHLQQFIQRHEFDHVGVFAFSPEEGTAAIDLPNPVPDDVKEARRDALMATQQPIAERRNRAQIGRLVDVLIEQEHPSTGLKIGRSARFAPEVDGVVYVQGDAALGQLVTVRITDADIYDLHGEVASAADLFQASRQPSLA | failed
MQKIPGYENTNSEVPDKKYWLYGLMIVFFALAFRLFELGERVLHHDESIHASFTLKLLEHGEYSYDPAYHGPFLFHSTAAVFHFLGITDTTSRLVPVLFGVATILLLFLLKKELGKNGVLWSMFLLAFSPSMVYFSRFFRNDMIIIFCTLAAVTGAFRYLDSIHSLKRYPYLVLAASSLAVAVSSKENAYIILAVFGAYAGLGFLYWICSDWKKENMGLKETLRSKTSALLPYLPEIILSGALSVFIIMFFYSSAFRYDVSLFSIVERAFNHWMEMHSIERIGGPFYYYIPILLRYEIPVVLFGAAGFFYFLFNRVRNKGQNYSFFLFLCYWALTSLLLYSYIQEKVPWLVVHIVLPFGLLAGAFLGEVFSKKNKDGQPKKPDYPGKIRALLTVILVLTLLVFISQCISVNYYRSMEDEELITYTQASPDIRILMEKIEGFNESPDTLRIYVIDQYQLYWPLPWYLRDYERAAYSSKPPSSSKYDAIIVPISCDMYRELSEEEYSSYNFTLRPGRDFTLYYNNKLEQQ | failed
MQGENAPQRSAEVTILDKQAIDIPHPLPGQDDQEFWIYVQKGRLGPKREFQVGIHYYHALNPGDKGVLTYQGQRFLHFALKRLEHHHHHH | not failed
SGSEPTKVMVAVNASTIKDYPNPSISCKRAFEWTLEKIVRSNTSDFKILLLHVQVVDEDGFDDVDSIYASPEDFRDMRQSNKAKGLHLLEFFVNKCHEIGVGCEAWIKTGDPKDVICQEVKRVRPDFLVVGSRGLGRFQKVFVGTVSAFCVKHAECPVMTIKRNADETPSDPADD | not failed
MSDEVPEILLAHYLKTLKLPTFQREYQKLARLCATEGVDHVEYLLRLSEREMIERDRRKVERRIKAARFPVVKSLDSFDFAAIPKLNKMQVLELARCEWIERRENVIALGPSGTGKTHVALGLGLAACQKGLSVGFTTAAALVSEMMEARDERRLLRFQKQMAAYQLLIIDELGFVPLSKTGAELLFELISQRYERGATLITSNLPFDEWTETLGSERLTGALLDRITHHVNILEMNGDSYRLAQSRARKAGLEHHHHHH | not failed
MEVLRYRSRPIVGGEAEGPAVVIDSLSFYGEVDPETGVTSGGKPLAGRVAAIRRSRGSTVGSYVIYALKENGVAPLAILMERAEPIVIAGCVLAGIPLYDGLPPEFFERVRDGYRVRVHSDGLVEVLGPGQP | failed
MTERSDYSIRIMSRQEIGMAVDWAAEEGWNPGLHDADCFHAADPEGFLTGLLGNEPVATISVVRYGTAFGFLGFYIVRPKYRGMGFGLKIWNAGLEQLKGRTIGLDGVVAQQENYAKSGFILAYRNIRVKGSGGGKIPAHEGIKPLVELPFETLLTYDSLFFPEERRTFLECWINQRESSSLGIIENNRLSGYGVIRTCRSGSKIGPLFADRADLAEELFCALKASAPEGSPLFLDIPEVNPEAVKLAQRHNMTVVFETSRMYQGNIPELPLGNIYGVTTFELG | failed
MSLSIVENGRKLESTIDFSRFAQEIKQNGWKIMLAGLIVAVVAYPLISMITPKYVSTATVLLKAQQDNVSPLPQVDGYDSTRSGYYETQYALMQSRIVLEQAVRDIKLDQNPAFNGDTDKNADHRGDEQQRVDHALDSIVKNLTITGVRTTHLATISYESASPELAADIANGAAQAFIDYTARQKHLKTLKAKALNQKQMEEVWQQVVEQQAAIDQFLKKEGLLTFRGVDGFETEQLGIVTTKLADATQRRIRAETNDNSVRSNAGTSLENIISLPDISNHAQIQDLRIALIQARRSLYDLRKRYGVKHTKILEAEAQVQAIEEQTHTVLLELKAGLNKQYQAALRDEKYYQQLLEQQKVDFQTLASKRDEYNNLTTALNKTKELYKALYQRTKEQTLAGNYLEPDAILYDPAVPADHPSKPNKAMLLVMVVMLTLIFSVVYFIVRAALDNSINSISQMKKRLNVAPVGEIRTFASGVERSKVVRLITKAPLDVDIVHSMRTHILLSHPSCQAIAISSAEHGEGRSLLAHLLARSFSADQKTLLIDLDFFNDGGLTQDLANPSAIGVAELLQGQSPLDAALVIISENLSFLPRGNAVMSSLLMLSSEHVVTLMAELRTRYQRIIVDVAAVNQTQDSQLISRVIDGVVFVLKAGEWRAGDVLNAIDKVKQHRAVLIGAVMNRVADKNLETKEGIRSLNHRMNALINSTGHL | failed
MAINLNDYKRVAQNLKVNKKNMREFLFDFRVNGKRYRKVETLIERTGWNKKDYEREAQLLLIDYRKKVEANTGNLQITSNTRLNELWELYFQTLDKSTSWTFTKESFYNRYLKEPLGKKKLDSIQEHHIMAIIRHLQAEGMATRTVNTTLEILRPLFDFAIKNKALRDNPTRFIVLKKDNTKKIVINGAEMFKRIFEGINDYYSSQPFYRALFLFGFTGRRKGEILKLKWENIDLDNNYYWIEDTKNNEKQKYELPHFIKEALLQIQDTHTGLVFKSPVTGRMLENTDGQMNKLKKHLNMPELTLHYMRNVLVSALAERGTEAITLSGMLGHRDATTINKYLSLSYHNSSKKGNATMGQIIDAEVVE | failed
MELFEFLLIKYGYIALILILTGGIVGLPIPDEVLLTLVGYYISLGKMSYVLALLASFLGATLGISISYFLGTKLGLPFLMKYGPKFHISHQKIDHAQALFRKYGPILLFIGYFLPGVRHVTGYLSGLSKCKFRTFSLYAYTGAFIWCLVFITLGHEIGNKWYIVEKYLFKSSFLLFLLILCVIGYFIVRNKRMEKNAEKK | failed
MFNNKQKQLVIILISLLLTFTSQASLASDTTILNEIINPQLIHIYEWETLSVYEKENVSQKPANWDSAESFYGSTRLSLLGEERFYRAKFTIGWHHRTRNLAISVGPLKGTDEVYINGFRVDDSGSGDYDLFFQNSYRVYRLPRNKTWFSWFNYTKENELLIKLSSSKRGQVLDSDYVEIGDYETLALKSRDFDSTIKTSQGSAIALLFMLILFIIFLHVNQYNKKSNTLFGFFIFYLSLSIASTSLFLNGPEYDGELLLSLSACLDLVSLVVFIKIVSDKFDLNISHYKRNEKSIKIFGTVSVLCILIFSDIFFAQKWFNLIIYIVMLLVVISTIHQLVIGRNIGGANYSIVSALMIMFLGVAFNGLWGGNSWPISPYHIGAILSSIFLLYSIAQDFKKMTLSMHAMSSRLVNIREIERARLTRDIHDGVGQGLATIRLFITMNINNFEPQLGISLKNEVDQTSNTLKSVIRNLKPIEMDDGNPSEAIIELARHLCEIAQIEMKVIHSDKADMNTENAYQLYRIGQEALNNSIKHSCCTLITIDIQRDRDRLIMSISDNGKGIKKQVENLGYGLSSMQERALLIGGQLRINNAIDSGVQVFLEVPIND | failed
MEIKLFCVFIVFIILFSPFVIALSYPDVNYTAENGIIFVQNVTTGEKKPLYLHGVSWFGFELKDHVVYGLDKRNWKDILKDVKRLGFNAIRLPFCSESIRPDTRPSPERINYELNPDLKNLTSLEIMEKIIEYANSIGLYILLDYHRIGCEEIEPLWYTENYSEEQYIKDWIFLAKRFGKYPNVIGADIKNEPHGEAGWGTGDERDFRLFAEKVGREILKVAPHWLIFVEGTQYTHVPNIDEIIEKKGWWTFWGENLMGVKDYPVRLPRGKVVYSPHVYGPSVYMMDYFKSPDFPNNMPIIWETHFGYLTDLNYTLVIGEWGGNYEGLDKVWQDAFVKWLIKKKIYNFFYWCLNPESGDTGGIFLDDWKTVNWEKMRVIYRLIKAANPEFEEPLYIILKTNATTSILGVGERIRIYWYTNGKVIDSNFAHSSEGEMNITVTKSMTLYIIVKKGNQTLRKELKLYVIGGNYGSNISTTQLVTPKKGGERISTSLKLAISLLFILLFVWYLLREKH | failed
MLKTPSDAAVAGCLSLLLEVSGNPKAGNVDREHDFDDLKFEHFLASAAGAFPAFLEVAEKRIIGEGVLRAVKESMRWHRAENVHFGAFLLLVPLISSWDAG | not failed
MSIRNPNSTLLYRAHSRPPVKLCAPPRSLLPSRRHFSAPRAVVSYPGIRFGFTSPEVLLNRSVVAFAASHEDSGESGVEVGKEKSDIDVEDDTSKEAWKQTLESFKEQVSKMQSVSSEAYSVNSQKAMTVLKETSEQLRIQAEKAKEELGTKAKVVSEEGREYILKAAEESPSDVKEIVEAFASTEDLKNVSRANDFHVGIPYGLLLLVGGFINFMVSGSIPAIRFGVILGGALFALSLASLKSHRKGESSTKFLKGQMAIVAIIFLRELRLLLSQKSTFLGFFTTLTSGGVLGFYLYKMVVKREKGPTLEDGGEDESSDGFVRSEG | failed
MESGHRFDAQTLHSFIQAVFRQMGSEEQEAKLVADHLIAANLAGHDSHGIGMIPSYVRSWSQGHLQINHHAKTVKEAGAAVTLDGDRAFGQVAAHEAMALGIEKAHQHGIAAVALHNSHHIGRIGYWAEQCAAAGFVSIHFVSVVGIPMVAPFHGRDSRFGTNPFCVVFPRKDNFPLLLDYATSAIAFGKTRVAWHKGVPVPPGCLIDVNGVPTTNPAVMQESPLGSLLTFAEHKGYALAAMCEILGGALSGGKTTHQETLQTSPDAILNCMTTIIINPELFGAPDCNAQTEAFAEWVKASPHDDDKPILLPGEWEVNTRRERQKQGIPLDAGSWQAICDAARQIGMPEETLQAFCQQLAS | not failed
MIIGNCLILKDFSSEPFWGAVEIENGTIKRVLQGEVKVDLDLSGKLVMPALFNTHTHAPMTLLRGVAEDLSFEEWLFSKVLPIEDRLTEKMAYYGTILAQMEMARHGIAGFVDMYFHEEWIAKAVRDFGMRALLTRGLVDSNGDDGGRLEENLKLYNEWNGFEGRIFVGFGPHSPYLCSEEYLKRVFDTAKSLNAPVTIHLYETSKEEYDLEDILNIGLKEVKTIAAHCVHLPERYFGVLKDIPFFVSHNPASNLKLGNGIAPVQRMIEHGMKVTLGTDGAASNNSLNLFFEMRLASLLQKAQNPRNLDVNTCLKMVTYDGAQAMGFKSGKIEEGWNADLVVIDLDLPEMFPVQNIKNHLVHAFSGEVFATMVAGKWIYFDGEYPTIDSEEVKRELARIEKELYSS | not failed
MQCNVCEFGCEIDEYSRGRCRTYVCTGDTIIQDPDMGYLGAYPVSIETIPLLHYYPSGKFLQVFGTGCNFQCSGCVARLLASGKSLSSTTLTPSQVVEKALQQDCLGVVSTLNEPAANYYLFRDLAVQAKEKGLLVGCSTNCYFTEETLNKLGQLVDFMNVGIKGYSDRSYISCGVPSSAPVFRNISLLFDMGVHVETSVVYSRGNEADVIKVAEAVSDISPTIPVQVMRFIPFGDAPIELEPSVGEAESLCADLRKYVDYVYLFNSPGTELLNTYCPECGSLLAEREFYGPMGSRPVRPWITYSCDCGKTVPVKGTTAVERFNEEGFMGGYRISRAFGMVHGVLTCLGILDDSRLIDVWREISDSGTLMKVHHMIQQPYAYLDFVRLIAERANMPEKGEELISFIHTRLELVKSLAAENSGHKVYYCMGSPLFALNAGRMENNLVAFSGGLSINKQLQKEGKPGINVSPSFINENNPDTIFISGFLSRPLDEFYTLCRQYGIETDAVKQQRVYEVPPSWDFGNPRWILGLMYIADKLYPGNSGIDLEKEADEFYRQFYGMPYLEHHHHHH | not failed
